Measured values published in the supplement of paper PMC9170038.

Tested on: MS2 coat protein
Assay: apparent KD of MS2 coat protein; higher = weaker reporter binding
Conditions: Eterna round: R107
Summary of the method: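 The buffer was 100 mM Tris-HCl pH 7.5 with 80 mM KCl and 4 mM MgCl2, used without or with constant ligand. In it, RNA switches transcribed on-chip from Illumina sequencing clusters were titrated with SNAP-549-labelled MS2 coat protein in twofold steps from 0.7 or 1.5 nM to 3 µM. Apparent KD for each design is the median of its normalised cluster binding-curve fits.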

[1] = input ligand: theophylline 20 uM
[2] = input ligand: theophylline 2 mM
[3] = input ligand: tryptophan 2.4 mM

Sequence	apparent KD of MS2 coat protein (input ligand: arginine 13.2 mM)	apparent KD of MS2 coat protein (input ligand: none)	apparent KD of MS2 coat protein [1]	apparent KD of MS2 coat protein [2]	apparent KD of MS2 coat protein [3]
UAUUAUAACCGAAGGAGCGGGAAAGAUGAUUUUUAAUAUUAACAUGAGGAUCACCCAUGUACCCAGGUAGGUCGCGGAUAUUAUU [Default title]	0.0238 µM	0.0195 µM	0.0234 µM	0.0207 µM	0.019 µM
UGUUUUGUGGGAAGGAGCGCAUACUUCACAUGAGGAUCACCCAUGUCAAGACGUGAGUCAGUGCAGGUAGGUCGCCUAGUUAAGA [Same State - Arginine B (Freestyle 16)]	0.0528 µM	0.0704 µM	0.059 µM	0.0619 µM	0.0493 µM
UAUCGUCAGACGGCCGCCACUAGAACAUGAGGAUCACCCAUGUACCCGGUCCAUUCCUCAUUAACUAGGACCGGGUCUGACGAAU [(Trp1)-(Ms2)-(T)'-(M)'-(Trp2)_Design13]	0.0883 µM	–	0.129 µM	0.131 µM	–
AUUCAUGGAAACAUGACAUAGGGAUCCGGUCGAGGACCGGUACGGCCGCCACUCGUUUGGAGGCACAUGAGGAUCACCCAUGUUA [SS Tryp A #7]	0.0407 µM	–	0.118 µM	0.101 µM	–
CGAAUGAAGCAAGAUACCAGUGUAGAUUUAGACAUGAGGAUCACCCAUGUGAGGCAUGAGCACCCUUGGCAGCUUAAGCAGAAAA [theeternabot_sameState_MS2_Theo_B_47]	0.115 µM	0.0287 µM	0.0257 µM	0.0605 µM	0.0294 µM
AGAUGAGUCACGGCCGCCACUCACUACAGGUUCACCCUUGGUUAACAUGAGGAUCACCCAUGUGGGAGGACCGGGUGAUGAGCAU [XTryp B #4]	0.0185 µM	–	0.0327 µM	0.0256 µM	–
ACAUGAGGAUCACCCAUGUGGAGCAGGGUACGAGGACCGGUACGGCCGCCACUCGAGCGUUAUGACGAGUGAAUGGCAACGAUGU [whbob_X-Trypto_A_V1.0]	0.00993 µM	0.0105 µM	0.0159 µM	0.0125 µM	0.0121 µM
AUAACAUGAGGAUCACCCAUGUUGAGUGAUACCAGACUAUGUAAUGUCCCUUGGCAGCACAAGUAAAGUUAUAAAUAAUGAUAGA [#12 SameState-TheophyllineA]	0.0482 µM	–	0.0551 µM	–	0.0472 µM
GGGCACAUGAGGAUCACCCAUGUCCAACGGCGAGGACCGGUACGGCCGCCACUCGGUAUAAGCUUCGAAAAGGAGGAUCCUGCAG [theeternabot_sameState_MS2_Trp_A_35]	0.0204 µM	–	0.0563 µM	0.0477 µM	–
CAUCGGGCGGUAAAUGGCGGGUACGGUGAUACCAGUUUUUGAUUUAACCCUUGGCAGCACUAUACAUGAGGAUCACCCAUGUAAU [theeternabot_exclusion_MS2_Theo_A_15]	0.0177 µM	–	0.0232 µM	–	0.0195 µM
UCGUUUUAGUCGGCCGCCACUGUAUGCAUGUUUAACAUGAGGAUCACCCAUGUCCCGUUCUAUUUCAGGACCGGGACGUAAUCGA [JR_SSTryptoB_Sub008]	0.106 µM	–	0.382 µM	0.619 µM	–
GCAUCCUAGUCGGCCGCCACUGCAAUUGUAAUACUGCUACAUGAGGAUCACCCAUGUCCAUGUAGCAGGACCGGGACUAGGAUGC [SS Tryp B #16]	0.142 µM	–	0.728 µM	1.24 µM	–
GAUUACAUGAGGAUCACCCAUGUAACUGAAGGAGCGGUAAUAAAGCCAGGUAGGUCGCGGAACAACAUGUGGAUCACCCAUGUAA [#13 Exclusion - Arginine A]	0.0337 µM	0.0435 µM	0.0516 µM	0.0437 µM	0.0327 µM
CCGACGAUGACUAUGGGUCAGGAGUGCGUACGAGGACCGGUACGGCCGCCACUCGAGGAGUGGGACAUGAGGAUCACCCAUGUGG [#19 Exclusion Tryptophan A]	0.0446 µM	0.0502 µM	0.0498 µM	0.0548 µM	0.0478 µM
UGUACCAUGUCGGCCGCCACUUGAAAUAAACAAGAGGAUCACCCUUGUGACGUCAAAGACGUCUCAAGGACCGGGACAUGGUACU [TryBS Zipper #StaticStem #Zipper]	0.168 µM	0.313 µM	0.281 µM	0.357 µM	0.019 µM
CUUGUGGUCGGAAGGAGCGCGAUUACAUAACAUGAGGAUCACCCAUGUAAGAAAUUAUUCAUGCAGGUAGGUCGCCGGUCGUGGG [Same State Arginine B GF10]	0.022 µM	0.0214 µM	0.0296 µM	0.0226 µM	0.0218 µM
AUCAUGGCCAUCGAUACCAGCUACAUGAGGAUCACCCAUGUAAACGGCCCGGUGAGAUGUAGCCCUUGGCAGCGAAGGGUCGAGG [Inenenatti]	0.014 µM	0.0186 µM	0.0243 µM	0.0723 µM	0.0146 µM
GGGCCCGGGCGCGAGCCCGGGCCCAUUGAUACCAGUGAAUGUGUGCGCCCUUGGCAGCGAAUCCUAACAUGAGGAUCACCCAUGU [5.E]	0.0162 µM	0.0286 µM	0.117 µM	0.0504 µM	0.0483 µM
ACAUGAGGAUCACCCAUGUGUGUAAAUCCUCGAGGACCGGUACGGCCGCCACUCGAACGAGUGUAAGAUGAAUGUUACAUUCAUC [SS Trp A s2]	0.0708 µM	–	0.134 µM	0.117 µM	–
AACAUGAGGAUCACCCAUGUCUGAACUGAAGGAGCGCUAAAUAAGGCAGGUAGGUCGCGGAAUUUUGUGUAUAUAUAUAUAUGGG [9.G]	0.0176 µM	0.0271 µM	0.0342 µM	0.025 µM	0.0243 µM
GGAACGAUCACUUCUUUAUCUAAGGCGGAUACCAGUCCUCGGUUUGACCCUUGGCAGCCGACAACAUGAGGAUCACCCAUGUUCU [theeternabot_exclusion_MS2_Theo_A_25]	0.0125 µM	–	0.0189 µM	–	0.0156 µM
UAUAUAUACUCGGCCGCCACUGAGAGAGUCAUGUAAACAUGAGGAUCACCCAUGUAAUAUAUAUACAGGACCGGGAGUAUAUUAA [4.A]	0.0191 µM	–	0.0173 µM	0.0158 µM	–
GUACAUGAGGAUCACCCAUGUAUAGUUGAAGGAGCGACCAGAGGGUCAGGUAGGUCGCAGCACAUGAGGUAAGCCCGUGUAUGCU [#1 Exclusion - Arginine A Attempt #19 (Inspired by Pi)]	0.0307 µM	0.0506 µM	0.0591 µM	0.0351 µM	0.032 µM
ACACAUGAGGAUCAUCCAUGUGCCCAUGAAGGAGCGUGGGAAACCACAGGUAGGUCGCAUGACAUGAGGAUCACCCAUGUUUAUU [#03 Exclusion - Arginine A]	0.0666 µM	0.204 µM	0.203 µM	0.366 µM	0.209 µM
ACACAUGACGCGGCCGCCACUGCAACAUGAGGAUCACCCAUGUCACCCAUGUAUGACAUGAGGAUCAGGACCGGGCGUGUGUGGA [Same State Tryptophan B 3]	0.615 µM	0.566 µM	0.491 µM	0.58 µM	0.195 µM
GCAUCCUAGUCGGCCGCCACUGCACGAUCAGUGGCAGAUCGUCAACAUGAGGAUCACCCAUGUAGCAGGACCGGGACUAGGAUGC [(Trp1)-(TM)''-(TM)'-(Ms2)-(Trp2)_Design3]	0.0185 µM	–	0.0219 µM	0.0209 µM	–
AUAUAUACAUGAGGAUCACCCAUGUUAUUUCGAGGACCGGUACGGCCGCCACUCGAUAGAGUAGAAGUAACAUUUGUUAGAUGUA [JR_SSTryptoA_Sub011]	0.0197 µM	–	0.0283 µM	0.022 µM	–
ACAUGAGGAUCACCCAUGUCAGGGCACGAUACCAGCUGAUCCGAUGGCCCUUGGCAGCGUGACGUGUGGUCAUGAGGAUCACCCG [kvfmullin]	0.139 µM	–	0.209 µM	–	0.182 µM
UCGUGUAUUUCGGAUACCAGUGAAAUCGAUACAUGAGGAUCACCCAUGUGAGAGGAUGUACACCCUUGGCAGCUGUCUGUAUCUG [cxezmullin]	0.0146 µM	–	0.0202 µM	–	0.0155 µM
